According to patent publication US20120258121A1 (OMEROS, published 2012):

How the values were obtained:
[1] = biological target: T1, human FN14 on the cell surface (FN14-transfected cells or cancer cell lines intrinsically expressing FN14, … (human, UniProt Q9NP84 28-129)); assay: binding affinity; method not restated in Example 3 (saturation binding on FN14-expressing cells by the methods of Example 1)
T1 construct: The cells in the assays are human cancer lines or FN14-transfected cells (293F/FN14); also called TWEAKR; CD266
T1 sequence: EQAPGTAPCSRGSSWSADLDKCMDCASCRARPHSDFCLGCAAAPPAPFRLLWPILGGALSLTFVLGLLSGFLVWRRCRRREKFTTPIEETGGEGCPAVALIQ

[2] = biological target: T1, human FN14 on the cell surface …; assay: as above; remark: listed apart in the source
[3] = biological target: T2, recombinant human FN14-Fc fusion protein (rhFN14-Fc; R&D Systems) (human, UniProt Q9NP84 28-79); assay: saturation binding of PECy5-labelled soluble antigen to FN14-specific DTLacO cells, flow cytometry
T2 construct: Bought reagent; Detected with PECy5-labeled anti-human IgG(Fc); also called soluble FN14; PECy5-labelled soluble antigen; not shown: Fc part of the bought fusion protein (detected with anti-human IgG(Fc))
T2 sequence: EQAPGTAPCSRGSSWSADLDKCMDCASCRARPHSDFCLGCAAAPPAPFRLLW

[4] = biological target: T1, human FN14 on the cell surface …; assay: saturation binding of recombinant antibody on target-expressing cells
Description: (§1) Saturation binding kinetics were determined by either staining FN14-specific DTLacO cells with various concentrations of fluorescent-labeled soluble antigen, or by staining FN14-transfected cells or cancer cell lines intrinsically expressing FN14 with various concentrations of the recombinant chimeric anti-FN14 mAbs.

[5] = biological target: T2, recombinant human FN14-Fc fusion …; assay: saturation binding of soluble antigen to DTLacO[FS24] cells, flow cytometry
[6] = biological target: T1, human FN14 on the cell surface …; assay: saturation binding of recombinant antibody on target-expressing cells (A375 melanoma)
Description: as §1

B1: Humanized PS4: H.1/L.9 (antibody, human IgG1, lambda)
heavy: not shown
light: ALTQPPSVSVSPGQTARITCSGGGSSYYAGSYYYGWYQQKPGQAPVTVIYYNNKRPSGIPERFSGSLSGSTNTLTISGVQAEDEADYYCGSIDNSGAAFGGGTKLTVLGQPKAAPSVTLFPPSSEELQANKATLVCLISDFYPGAVTVAWKADSSPVKAGVETTTPSKQSNNKYAASSYLSLTPEQWKSHRSYSCQVTHEGSTVEKTVAPTECS
notes: also called humanized PS4 antibody H.1/L.9
With B1 the Kd [1] was 0.24 nM.

B2: Humanized FS24 (antibody, human IgG1, lambda, V domains shown)
VH: EVQLVESGGGLVQPGGSLRLSCAASGFTFSSYDMAWVRQAPGKGLEWVAGIDYDGSGRRYAPAVKGRATISRDNSKNTLYLQMNSLRAEDTAVYYCTKCGYTGGCDYEGGYIDAWGQGTLVTVSS
VL: ELTQPPSVSVSPGQTARITCSGGGSSYYAGSYYYGWYQQKPGQAPVTLIYYNNKRPSGIPERFSGSLSGSTNTLTISGVQAEDEADYYCGSIDNSGAAFGGGTKLTVLG
notes: also called hFS24; humanized FS24 antibody
B2 was tested, and the Kd [2] was 0.21 nM.

B3: surface immunoglobulin of the FN14-specific DTLacO cell population FS17 (antibody, V domains shown)
VH: AVTLDESGGGLQTPGGALSLVCKASGFTFSSYDMAWVRQEPGKGLEWVAGIDDDGSGRRYAPAVKGRATISRDNGQSTLRLQLNNLRAEDTGTYYCTKCAYTGGCDYEGGYIDAWGHGTEVIVSS
VL: ALTQPASVSANPGETVKITCSGGGSSYYAGSYYYGWYQQKAPGSAPVTLIYYNNKRPSDIPSRFSGSLSGSTNTLTITGVRADDEAVYFCGSIDNSGAAFGAGTTLTVL
notes: Chicken surface IgM on DTLacO cells
For B3, the Kd [3] was 0.7 nM.

B4: recombinant chimeric monoclonal antibody PS4B (chicken V regions, human IgG1 / lambda constant regions) (antibody, V domains shown)
VH: AVTLDESGGGLQTPGGALSLVCKASGFTFSSYDMFWVRQEPGKGLEWVAGIDDDGSGRRYAPAVKGRATISRDNGQSTLRLQLNNLRAEDTGTYYCTKCAYSSGCDYEGGYIDAWGHGTEVIVSS
VL: ALTQPASVSANPGETVKITCSGGGSSYYAGSYYYGWYQQKSPGSAPVTVIYYNNKRPSDIPSRFSGSLSGSTNTLTITGVRADDEAVYFCGSIDNSGAAFGAGTTLTVLG
B4 showed a Kd [4] of 0.35 nM.

B5: chimeric PS4 antibody (parent of the humanized PS4 versions) (antibody, human IgG1, lambda, V domains shown)
VH: AVTLDESGGGLQTPGGALSLVCKASGFTFSSYDMFWVRQEPGKGLEWVAGIDDDGSGRRYAPAVKGRATISRDNGQSTLRLQLNNLRAEDTGTYYCTKCAYSSGCDYEGGYIDAWGHGTEVIVSS
VL: ALTQPASVSANPGETVKITCSGGGSSYYAGSYYYGWYQQKSPGSAPVTVIYYNNKRPSDIPSRFSGSLSGSTNTLTITGVRADDEAVYFCGSIDNSGAAFGAGTTLTVLG
notes: also called Chicken PS4; original chimeric antibody PS4
Binder B5 has a Kd [1] of 0.21 nM.

B6: recombinant chimeric monoclonal antibody PS4A (chicken V regions, human IgG1 / lambda constant regions) (antibody, V domains shown)
VH: AVTLDESGGGLQTPGGALSLVCKASGFTFSSYDMFWVRQEPGKGLEWVAGIDDDGSGRRYAPAVKGRATISRDNGQSTLRLQLNNLRAEDTGTYYCTKCAYSSGCDYEGGYIDAWGHGTEVIVSS
VL: ALTQPSSVSANPGETVKITCSGGGSSYYAGSYYYGWYQQKAPGSAPVTLIYYNNKRPSDIPSRFSGSLSGSTNTLTITGVRADDEAVYFCGSIDNSGAAFGAGTTLTVLG
B6 gave a Kd [4] of 0.21 nM.

B7: surface immunoglobulin of the FN14-specific DTLacO cell population FS24 (antibody, V domains shown)
VH: AVTLDESGGGLQTPGGALSLVCKASGFTFSSYDMAWVRQEPGKGLEWVAGIDYDGSGRRYAPAVKGRATISRDNGQSTLRLQLNNLRAEDTGTYYCTKCGYTGGCDYEGGYIDAWGHGTEVIVSS
VL: ALTQPSSVSANPGETVKITCSGGGSSYYAGSYYYGWYQQKAPGSAPVTLIYYNNKRPSDIPSRFSGSLSGSTNTLTITGVRADDEAVYFCGSIDNSGAAFGAGTTLTVL
notes: Chicken surface IgM on DTLacO cells; also called DTLacO[FS24]
In the case of B7, the Kd [5] is reported as 0.44 nM and the Kd [3] is reported as 0.67 nM.

B8: recombinant chimeric monoclonal antibody FS10 (chicken V regions, human IgG1 / lambda constant regions) (antibody, V domains shown)
VH: AVTLDESGGGLQTPGGALSLVCKASGFTFSSYDMAWVRQEPGKGLEWVAGIDDDGSGRRYAPAVKGRATISRDNGQSTLRLQLNNLRAEDTGTYYCTKCAYSSGCDYEGGYIDAWGHGTEVIVSS
VL: ALTQPASVSANPGETVKITCSGGGSSYYAGSYYYGWYQQKAPGSALVTLIYYNNKRPSDIPSRFSGSLSGSTNTLTITGVRADDEAVYFCGSADNSGAAFGAGTTLTVLG
notes: expressed in 293F cells; also called mAb FS10
B8 gave a Kd [4] of 25 nM.

B9: surface immunoglobulin of the FN14-specific DTLacO cell population FS10 (antibody, V domains shown)
VH: AVTLDESGGGLQTPGGALSLVCKASGFTFSSYDMAWVRQEPGKGLEWVAGIDDDGSGRRYAPAVKGRATISRDNGQSTLRLQLNNLRAEDTGTYYCTKCAYSSGCDYEGGYIDAWGHGTEVIVSS
VL: ALTQPASVSANPGETVKITCSGGGSSYYAGSYYYGWYQQKAPGSALVTLIYYNNKRPSDIPSRFSGSLSGSTNTLTITGVRADDEAVYFCGSADNSGAAFGAGTTLTVL
notes: Chicken surface IgM on DTLacO (DT40-derived) cells
In the case of B9, the Kd [3] is reported as 25 nM.

B10: recombinant chimeric monoclonal antibody FS24 (chicken V regions, human IgG1 / lambda constant regions) (antibody, V domains shown)
VH: AVTLDESGGGLQTPGGALSLVCKASGFTFSSYDMAWVRQEPGKGLEWVAGIDYDGSGRRYAPAVKGRATISRDNGQSTLRLQLNNLRAEDTGTYYCTKCGYTGGCDYEGGYIDAWGHGTEVIVSS
VL: ALTQPSSVSANPGETVKITCSGGGSSYYAGSYYYGWYQQKAPGSAPVTLIYYNNKRPSDIPSRFSGSLSGSTNTLTITGVRADDEAVYFCGSIDNSGAAFGAGTTLTVLG
notes: also called mAb FS24; Chicken FS24
B10 showed a Kd [6] of 0.21 nM and a Kd [2] of 0.26 nM.

B11: recombinant chimeric monoclonal antibody FS17 (chicken V regions, human IgG1 / lambda constant regions) (antibody, V domains shown)
VH: AVTLDESGGGLQTPGGALSLVCKASGFTFSSYDMAWVRQEPGKGLEWVAGIDDDGSGRRYAPAVKGRATISRDNGQSTLRLQLNNLRAEDTGTYYCTKCAYTGGCDYEGGYIDAWGHGTEVIVSS
VL: ALTQPASVSANPGETVKITCSGGGSSYYAGSYYYGWYQQKAPGSAPVTLIYYNNKRPSDIPSRFSGSLSGSTNTLTITGVRADDEAVYFCGSIDNSGAAFGAGTTLTVLG
notes: also called mAb FS17
B11 was tested, and the Kd [4] was 0.36 nM.

B12: Humanized PS4: H.1/L.1 (antibody, human IgG1)
heavy: not shown
light: SYELTQPPSVSVSPGQTARITCSGGGSSYYAGSYYYGWYQQKPGQAPVTVIYYNNKRPSGIPERFSGSLSGSTNTLTISGVQAEDEADYYCGSIDNSGAAFGGGTKLTVLGQPKAAPSVTLFPPSSEELQANKATLVCLISDFYPGAVTVAWKADSSPVKAGVETTTPSKQSNNKYAASSYLSLTPEQWKSHRSYSCQVTHEGSTVEKTVAPTECS
notes: also called first humanized version of PS4
Binder B12 has a Kd [1] of 15 nM.
